These results are taken from publication PMC9363421.

Experiment [1] addresses GFAT1 (UniProt Q06210). In words: GST pull-down after in vitro kinase reaction. The settings on record: sites S438.
In experiment [2] the target is GFAT1 (UniProt Q06210). In words: His-TAB1 pull-down after JNK reaction. The settings on record: reference: His-TAB1 WT treated with JNK; sites S438.
The target of experiment [3] is GFAT1 (UniProt Q06210). In words: co-immunoprecipitation of TAB1 mutants. The settings on record: reference: wild type; sites S438.

In the case of “TAB1 (from UniProt Q15750) His-TAB1-S438A treated with p38α”, the “binding against the reference” value in the experiment with GFAT1 [1] (reference: His-TAB1 WT treated with p38α) is reported as “weaker”.

As for “TAB1 (from UniProt Q15750) His-TAB1-S438A treated with JNK1”, the “binding against the reference” value with GFAT1 [1] (reference: His-TAB1 WT treated with JNK1) is “weaker”.

Turning to “TAB1 (from UniProt Q15750) His-TAB1-S438A treated with JNK”, the “binding against the reference” value with GFAT1 [2] is “weaker”.

Take TAB1 (from UniProt Q15750) S438A: the “binding against the reference” value with GFAT1 [3] was “weaker”.
